# Data: US7494647 (Chugai, dated 2009)
# Target: T1, human tissue factor (TF) on human bladder carcinoma cells J82 (human, UniProt P13726 33-295)
# T1 construct: whole, on cells; also called the antigen; J82 cells
# Experiment: cell ELISA on paraformaldehyde-fixed J82 cells; AP-conjugated goat anti-human IgGγ; absorbance 405/655 nm
# Experimental: (§1) Cell ELISA plates for measurement of antigen binding were prepared as follows. Cells used were human bladder carcinoma cells J82 (ATCC HTB-1). To 60 wells of a 96-well cell culture plate, 1 ×10^5 J82 cells were inoculated. This was cultured (RPMI1640 medium containing 10% fetal bovine serum (GIBCO)) for one day in a CO_2 incubator to allow the cells to be attached thereto. After discarding the culture liquid, each well was washed twice with 300 μl PBS. 100 μl of PBS containing 4% paraformaldehyde (hereinafter referred to as PFA/PBS) was added to each well, and placed on ice for 10 minutes to immobilize the cells.
# (§2) PFA/PBS was discarded, and each well was washed twice with 300 μl of PBS, and then blocked with 250 μl of DB. The culture supernatant or purified antibody was serially diluted with DB, 100 μl of which was added to each well. After incubating at room temperature for 2 hours followed by washing with RB, 100 μl of alkaline phosphatase-conjugated goat anti-human IgGγ antibody (BioSource) diluted 1000-fold with DB was added. After incubating for 1 hour followed by washing with RB, the substrate solution was added, and then absorbance at 405/655 nm was measured using the Microplate Reader (Bio-Rad).
# T1 sequence (P13726 33-295): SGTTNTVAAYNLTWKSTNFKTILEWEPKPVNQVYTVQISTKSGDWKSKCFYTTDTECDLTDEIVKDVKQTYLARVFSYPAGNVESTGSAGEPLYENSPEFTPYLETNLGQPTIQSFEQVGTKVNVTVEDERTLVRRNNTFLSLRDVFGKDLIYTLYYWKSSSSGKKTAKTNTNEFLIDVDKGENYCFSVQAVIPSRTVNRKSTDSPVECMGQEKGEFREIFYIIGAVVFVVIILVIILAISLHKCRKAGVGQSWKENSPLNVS
Binder,EC50 (read off the curve),binding result
"H chain humanized version c/L chain chimeric antibody (antibody, IgG4, V domains shown, L chain V region is that of mouse ATR-5; also called c-ch) VH: QVQLLESGAVLARPGTSVKISCKASGFNIKDYYMHWVKQRPGQGLEWIGGNDPANGHSMYDPKFQGRVTMLVDTSKNQFSLRLSSVTAADTAVYYCARDSGYAMDYWGQGTLVTVSS VL: DIKMTQSPSSMYASLGERVTITCKASQDIKSFLSWYQQKPWKSPKTLIYYATSLADGVPSRFSGSGSGQDYSLTINNLESDDTATYYCLQHGESPYTFGGGTKLEIK",~0.09 µg/mL,
"H chain humanized version b/L chain humanized version a antibody (antibody, IgG4, V domains shown, also called b-a) VH: QVQLLESGAVLARPGTSVKISCKASGFNIKDYYMHWVKQRPGQGLEWIGGNDPANGHSMYDPKFQGRVTITADTSTNTAYMELSSLRSEDTAIYYCARDSGYAMDYWGQGTLVTVSS VL: DIQMTQSPSSLSASVGDRVTITCKASQDIKSFLSWYQQKPGKAPKLLIYYATSLADGVPSRFSGSGSGTDFTLTISSLQPEDFATYYCLQHGESPYTFGGGTKVEIK",~0.1 µg/mL,
"H chain humanized version i/L chain chimeric antibody (antibody, IgG4, V domains shown, L chain V region is that of mouse ATR-5; also called i-ch) VH: QVQLLESGAVLARPGTSVKISCKASGFNIKDYYMHWVKQRPGQGLEWIGGNDPANGHSMYDPKFQGRVTITADTSTSTAYMELRSLRSDDTAVYYCARDSGYAMDYWGQGTLVTVSS VL: DIKMTQSPSSMYASLGERVTITCKASQDIKSFLSWYQQKPWKSPKTLIYYATSLADGVPSRFSGSGSGQDYSLTINNLESDDTATYYCLQHGESPYTFGGGTKLEIK",,binds
"H chain humanized version d/L chain chimeric antibody (antibody, IgG4, V domains shown, L chain V region is that of mouse ATR-5; also called d-ch) VH: QVQLLESGAVLARPGTSVKISCKASGFNIKDYYMHWVKQRPGQGLEWIGGNDPANGHSMYDPKFQGRVTITADESTSTAYMELSSLRSEDSAVYFCARDSGYAMDYWGQGTLVTVSS VL: DIKMTQSPSSMYASLGERVTITCKASQDIKSFLSWYQQKPWKSPKTLIYYATSLADGVPSRFSGSGSGQDYSLTINNLESDDTATYYCLQHGESPYTFGGGTKLEIK",~0.07 µg/mL,
"H chain humanized version e/L chain chimeric antibody (antibody, IgG4, V domains shown, L chain V region is that of mouse ATR-5; also called e-ch) VH: QVQLLESGAVLARPGTSVKISCKASGFNIKDYYMHWVKQRPGQGLEWIGGNDPANGHSMYDPKFQGRVSITADESTKIAYMELNSLRSEDTAVYFCARDSGYAMDYWGQGTLVTVSS VL: DIKMTQSPSSMYASLGERVTITCKASQDIKSFLSWYQQKPWKSPKTLIYYATSLADGVPSRFSGSGSGQDYSLTINNLESDDTATYYCLQHGESPYTFGGGTKLEIK",~0.05 µg/mL,
"H chain humanized version b/L chain chimeric antibody (antibody, IgG4, V domains shown, L chain V region is that of mouse ATR-5; also called b-ch) VH: QVQLLESGAVLARPGTSVKISCKASGFNIKDYYMHWVKQRPGQGLEWIGGNDPANGHSMYDPKFQGRVTITADTSTNTAYMELSSLRSEDTAIYYCARDSGYAMDYWGQGTLVTVSS VL: DIKMTQSPSSMYASLGERVTITCKASQDIKSFLSWYQQKPWKSPKTLIYYATSLADGVPSRFSGSGSGQDYSLTINNLESDDTATYYCLQHGESPYTFGGGTKLEIK",~0.1 µg/mL,
"H chain humanized version g/L chain humanized version b antibody (antibody, IgG4, V domains shown, also called g-b) VH: QVQLLESGAVLARPGTSVKISCKASGFNIKDYYMHWVKQRPGQGLEWIGGNDPANGHSMYDPKFQGKATLTADESSSTAYMQLSSLRSEDSAVYSCARDSGYAMDYWGQGTLVTVSS VL: DIQMTQSPSSLSASVGDRVTITCKASQDIKSFLSWYQQKPGKAPKLLIYYATSLADGVPSRFSGSGSGTDYTLTISSLQPEDFATYYCLQHGESPYTFGGGTKVEIK",~0.04 µg/mL,

# Now from value to binder:
EC50 (read off the curve),binding result,Binder
,binds,"H chain humanized version d/L chain humanized version b antibody (antibody, IgG4, V domains shown, also called d-b) VH: QVQLLESGAVLARPGTSVKISCKASGFNIKDYYMHWVKQRPGQGLEWIGGNDPANGHSMYDPKFQGRVTITADESTSTAYMELSSLRSEDSAVYFCARDSGYAMDYWGQGTLVTVSS VL: DIQMTQSPSSLSASVGDRVTITCKASQDIKSFLSWYQQKPGKAPKLLIYYATSLADGVPSRFSGSGSGTDYTLTISSLQPEDFATYYCLQHGESPYTFGGGTKVEIK"
,binds,"H chain chimeric/L chain humanized version b1 antibody (antibody, IgG4, V domains shown, H chain V region is that of mouse ATR-5; also called ch-b1) VH: EVQLQQSGTNLVRPGALVKLSCKGSGFNIKDYYMHWVKQRPEQGLEWIGGNDPANGHSMYDPKFQGKASITADTSSNTAYLQLSSLTSEDTAVYFCARDSGYAMDYWGQGTSVTVSS VL: DIQMTQSPSSLSASVGDRVTITCKASQDIKSFLSWFQQKPGKSPKTLIYYATSLADGVPSRFSGSGSGTDYTLTISSLQPEDFATYYCLQHGESPYTFGGGTKVEIK"
,binds,"H chain humanized version j/L chain chimeric antibody (antibody, IgG4, V domains shown, L chain V region is that of mouse ATR-5; also called j-ch) VH: QVQLLESGAVLARPGTSVKISCKASGFNIKDYYMHWVKQRPGQGLEWIGGNDPANGHSMYDPKFQGRVTFTADTSANTAYMELRSLRSADTAVYYCARDSGYAMDYWGQGTLVTVSS VL: DIKMTQSPSSMYASLGERVTITCKASQDIKSFLSWYQQKPWKSPKTLIYYATSLADGVPSRFSGSGSGQDYSLTINNLESDDTATYYCLQHGESPYTFGGGTKLEIK"
,binds,"H chain humanized version i/L chain humanized version b1 antibody (antibody, IgG4, V domains shown, also called i-b1) VH: QVQLLESGAVLARPGTSVKISCKASGFNIKDYYMHWVKQRPGQGLEWIGGNDPANGHSMYDPKFQGRVTITADTSTSTAYMELRSLRSDDTAVYYCARDSGYAMDYWGQGTLVTVSS VL: DIQMTQSPSSLSASVGDRVTITCKASQDIKSFLSWFQQKPGKSPKTLIYYATSLADGVPSRFSGSGSGTDYTLTISSLQPEDFATYYCLQHGESPYTFGGGTKVEIK"
,binds,"H chain chimeric/L chain humanized version b2 antibody (antibody, IgG4, V domains shown, H chain V region is that of mouse ATR-5; also called ch-b2) VH: EVQLQQSGTNLVRPGALVKLSCKGSGFNIKDYYMHWVKQRPEQGLEWIGGNDPANGHSMYDPKFQGKASITADTSSNTAYLQLSSLTSEDTAVYFCARDSGYAMDYWGQGTSVTVSS VL: DIQMTQSPSSLSASVGDRVTITCKASQDIKSFLSWYQQKPEKAPKSLIYYATSLADGVPSRFSGSGSGTDYTLTISSLQPEDFATYYCLQHGESPYTFGGGTKVEIK"
,binds,"H chain humanized version j/L chain humanized version b antibody (antibody, IgG4, V domains shown, also called j-b) VH: QVQLLESGAVLARPGTSVKISCKASGFNIKDYYMHWVKQRPGQGLEWIGGNDPANGHSMYDPKFQGRVTFTADTSANTAYMELRSLRSADTAVYYCARDSGYAMDYWGQGTLVTVSS VL: DIQMTQSPSSLSASVGDRVTITCKASQDIKSFLSWYQQKPGKAPKLLIYYATSLADGVPSRFSGSGSGTDYTLTISSLQPEDFATYYCLQHGESPYTFGGGTKVEIK"

# Target: T2, soluble human TF (human TF 1-219 with the FLAG peptide linked to the C-terminal) (human, UniProt P13726 33-251)
# T2 construct: Entry is the whole soluble construct (TF 1-219 followed by FLAG peptide M2); also called soluble TF; shTF
# Experiment: BIACORE; antibody captured on Protein G chip, soluble TF as analyte; mean ± SD, n = 3
# Experimental: Kinetic analysis of the antigen-antibody reaction was carried out using BIACORE. The recombinant Protein G was immobilized on a sensor chip, to which the antibody was coupled. The purified recombinant TF (a soluble TF in which the FLAG peptide was tagged at 1-219) was used as the antigen, and the-soluble TF prepared at various concentrations were used as analytes. From the sensorgram obtained, kinetic parameters (dissociation rate constants kdiss, and binding rate constants kass) were calculated.
# As the running buffer, the HBS-EP buffer was used. Ten μl Of […] antibody solution was injected at a flow rate of 20 μl/min to immobilize antibody. The antibody was diluted with the HBS-EP buffer. Forty μl Of the soluble human TF solution at various concentrations were injected at a flow rate of 30 μl/min thereto. In the analysis, 80 seconds for injection was set as the binding phase and then changed to the HBS-EP buffer to set the dissociation phase of 120 seconds. After the dissociation phase was over, 10 μl of 20 mM hydrochloric acid was injected to reconstitute the sensor chip. The binding, dissociation, and reconstitution were set as one cycle, and the sensorgram was obtained for each antibody. The soluble human TF solution was prepared at concentrations of 250 nM, 125 nM, 62.5 nM, 31.3 nM, 15.6 nM, 7.81 nM, and 3.91 nM using the HBS-EP buffer. As the blank, the sensorgram obtained by injecting the HBS-EP buffer used for dilution was used.
# The data file of interest was read in, and the comparison of reaction patterns by superscription was made using as the baseline the sensorgram of the HBS-EP buffer. Furthermore, using an analytical application software "BIAevaluation 2.1" (Pharmacia) exclusively for BIACORE that calculates kinetic parameters (binding rate constants kass and dissociation rate constants kdiss) by curve-fitting, kinetic analysis of interaction was performed. In order to determine the binding rate constants kass, the analysis model type 4 was used (BIAevaluation 2.1 Software Hand book, A1-A5). Based on the values calculated from each flow cell, kinetic parameters for each antibody were obtained.
# T2 sequence (P13726 other isoform, or with tags, fused parts or gaps limits assumed): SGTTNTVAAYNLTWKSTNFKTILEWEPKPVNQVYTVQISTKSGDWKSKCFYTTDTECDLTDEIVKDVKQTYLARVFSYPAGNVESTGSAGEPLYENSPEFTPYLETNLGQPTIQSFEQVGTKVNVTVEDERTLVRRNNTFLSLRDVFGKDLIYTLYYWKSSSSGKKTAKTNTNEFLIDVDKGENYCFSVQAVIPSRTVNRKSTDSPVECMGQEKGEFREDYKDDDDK
Kd,koff,kon,Binder
1.39 nM,0.000649 s⁻¹,467000 M⁻¹ s⁻¹,"H chain humanized version i/L chain humanized version b antibody (antibody, IgG4, V domains shown) VH: QVQLLESGAVLARPGTSVKISCKASGFNIKDYYMHWVKQRPGQGLEWIGGNDPANGHSMYDPKFQGRVTITADTSTSTAYMELRSLRSDDTAVYYCARDSGYAMDYWGQGTLVTVSS VL: DIQMTQSPSSLSASVGDRVTITCKASQDIKSFLSWYQQKPGKAPKLLIYYATSLADGVPSRFSGSGSGTDYTLTISSLQPEDFATYYCLQHGESPYTFGGGTKVEIK"
1.17 nM,0.000635 s⁻¹,544000 M⁻¹ s⁻¹,"H chain humanized version i/L chain humanized version b2 antibody (antibody, IgG4, V domains shown, also called i-b2; ib2) VH: QVQLLESGAVLARPGTSVKISCKASGFNIKDYYMHWVKQRPGQGLEWIGGNDPANGHSMYDPKFQGRVTITADTSTSTAYMELRSLRSDDTAVYYCARDSGYAMDYWGQGTLVTVSS VL: DIQMTQSPSSLSASVGDRVTITCKASQDIKSFLSWYQQKPEKAPKSLIYYATSLADGVPSRFSGSGSGTDYTLTISSLQPEDFATYYCLQHGESPYTFGGGTKVEIK"

# Target: T1, human tissue factor (TF) on human …
# Experiment: cell ELISA on paraformaldehyde-fixed J82 cells; AP-conjugated goat anti-human IgGγ; absorbance 405/655 nm
# Remark: another data set of the same source
# Experimental: as §1, §2
row,EC50 (read off the curve),Binder
1,~0.08 µg/mL,"H chain chimeric/L chain humanized version b antibody (antibody, IgG4, V domains shown, H chain V region is that of mouse ATR-5; also called ch-b) VH: EVQLQQSGTNLVRPGALVKLSCKGSGFNIKDYYMHWVKQRPEQGLEWIGGNDPANGHSMYDPKFQGKASITADTSSNTAYLQLSSLTSEDTAVYFCARDSGYAMDYWGQGTSVTVSS VL: DIQMTQSPSSLSASVGDRVTITCKASQDIKSFLSWYQQKPGKAPKLLIYYATSLADGVPSRFSGSGSGTDYTLTISSLQPEDFATYYCLQHGESPYTFGGGTKVEIK"

# Target: TF/Factor VIIa complex (human, UniProt P13726 33-295; P08709 61-466)
# Experiment: cell-based or functional assay
# TF/Factor VIIa complex, sequence (P13726 33-295 limits assumed, chain 1 of 2): as the sequence (P13726 33-295) above
# TF/Factor VIIa complex, sequence (P08709 61-466 limits assumed, chain 2 of 2): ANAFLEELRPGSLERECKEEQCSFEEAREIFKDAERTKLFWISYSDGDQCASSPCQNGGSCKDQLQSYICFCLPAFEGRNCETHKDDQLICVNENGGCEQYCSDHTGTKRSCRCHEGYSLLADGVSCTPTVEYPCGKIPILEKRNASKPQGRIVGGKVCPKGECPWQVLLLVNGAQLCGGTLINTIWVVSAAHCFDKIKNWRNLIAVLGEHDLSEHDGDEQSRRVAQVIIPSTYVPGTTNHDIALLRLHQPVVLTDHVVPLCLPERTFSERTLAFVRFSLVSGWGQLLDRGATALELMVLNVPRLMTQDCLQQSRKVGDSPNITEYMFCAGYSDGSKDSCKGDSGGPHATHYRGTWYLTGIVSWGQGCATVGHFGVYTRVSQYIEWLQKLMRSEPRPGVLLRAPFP
row,IC50 (read off the curve),Binder
1,~0.1 µg/mL,"H chain humanized version i/L chain humanized version b antibody (antibody, IgG4, V domains shown) VH: QVQLLESGAVLARPGTSVKISCKASGFNIKDYYMHWVKQRPGQGLEWIGGNDPANGHSMYDPKFQGRVTITADTSTSTAYMELRSLRSDDTAVYYCARDSGYAMDYWGQGTLVTVSS VL: DIQMTQSPSSLSASVGDRVTITCKASQDIKSFLSWYQQKPGKAPKLLIYYATSLADGVPSRFSGSGSGTDYTLTISSLQPEDFATYYCLQHGESPYTFGGGTKVEIK"
2,~0.06 µg/mL,"H chain humanized version i/L chain humanized version b2 antibody (antibody, IgG4, V domains shown, also called i-b2; ib2) VH: QVQLLESGAVLARPGTSVKISCKASGFNIKDYYMHWVKQRPGQGLEWIGGNDPANGHSMYDPKFQGRVTITADTSTSTAYMELRSLRSDDTAVYYCARDSGYAMDYWGQGTLVTVSS VL: DIQMTQSPSSLSASVGDRVTITCKASQDIKSFLSWYQQKPEKAPKSLIYYATSLADGVPSRFSGSGSGTDYTLTISSLQPEDFATYYCLQHGESPYTFGGGTKVEIK"
